Reference: US9265844B2, “Protease degradable polypeptides and uses thereof” (THE METHODIST HOSPITAL SYSTEM, priority 2010, dated 2016)
Blank lines part the entries; values can stand above or below the molecule they belong to. Non-standard residues stand in square brackets, D forms with d. Residues, ends and D or L forms follow the SMILES beside them. *: point of attachment. Dnp = O=[N+]([O-])c1ccc(*)c([N+](=O)[O-])c1; Mca = COc1ccc2c(CC(=O)*)cc(=O)oc2c1

What was measured:
Format in all cases: biochemical
Cath E [1] = target: T1, Cath E (Homo sapiens, UniProt P14091); assay: FRET hydrolysis of quenched substrates a-e by Cath E; set-up: purchased Calbiochem, EMD Bioscience (Gibbstown, N.J.); settings: for time to saturation of fluorescence on activation by Cath E: 23 pmol Cath E
T1 sequence (P14091 54-396): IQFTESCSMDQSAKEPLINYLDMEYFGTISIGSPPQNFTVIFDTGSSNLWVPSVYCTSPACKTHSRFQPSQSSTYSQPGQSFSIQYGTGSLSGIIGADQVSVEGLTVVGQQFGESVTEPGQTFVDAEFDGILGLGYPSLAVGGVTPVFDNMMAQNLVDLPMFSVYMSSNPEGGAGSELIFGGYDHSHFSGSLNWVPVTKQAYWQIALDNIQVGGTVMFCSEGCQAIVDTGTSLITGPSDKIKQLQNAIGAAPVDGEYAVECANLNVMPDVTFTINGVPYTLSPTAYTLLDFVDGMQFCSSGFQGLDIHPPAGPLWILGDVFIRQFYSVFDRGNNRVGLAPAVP
Protocol: (§1) The catalytic selectivity of Cath E and Cath D was determined fluorometrically by FRET-based hydrolysis of intramolecularly quenched peptide substrates a-e. Fluorogenic substrates a-e (10 μL, 200 μM) were incubated with 23 pmol of Cath E or Cath D in 50 mM sodium acetate buffer, pH 4, containing 150 mM NaCl, and the total volume was brought to 100 μL, using the same buffer. Cath S and Cath B were pre-activated by incubation with 100 mM sodium acetate buffer solution, pH 6.5, containing 5 mM DTT and 5 mM EDTA for 5 minutes. Cath S and Cath B (23 pmol) were incubated with 10 μL, of 200 μM fluorogenic substrate e at 100 mM sodium acetate buffer solution, pH6.5, containing 5 mM DTT and 5 mM EDTA, and the total volume was brought to 100 μL, using the same buffer. All assays were performed in triplicate in 96 well black walls, clear-bottom plates (Corning, N.Y.). The change in the fluorescence intensity was monitored over time using SpectraMax.M2^e fluorescence spectrophotometer (Molecular Devices; Sunnyvale, Calif.) at excitation wavelength (λex) of 340 nm and emission wavelength (λem) of 405 nm at 37° C. Control experiments were performed simultaneously by replacing the enzyme with assay buffer.

Cath D [2] = target: T2, Cath D (Homo sapiens, UniProt P07339); assay: FRET hydrolysis of quenched substrates a-e by Cath D; settings: compared among substrates a-e
T2 sequence (P07339 65-412): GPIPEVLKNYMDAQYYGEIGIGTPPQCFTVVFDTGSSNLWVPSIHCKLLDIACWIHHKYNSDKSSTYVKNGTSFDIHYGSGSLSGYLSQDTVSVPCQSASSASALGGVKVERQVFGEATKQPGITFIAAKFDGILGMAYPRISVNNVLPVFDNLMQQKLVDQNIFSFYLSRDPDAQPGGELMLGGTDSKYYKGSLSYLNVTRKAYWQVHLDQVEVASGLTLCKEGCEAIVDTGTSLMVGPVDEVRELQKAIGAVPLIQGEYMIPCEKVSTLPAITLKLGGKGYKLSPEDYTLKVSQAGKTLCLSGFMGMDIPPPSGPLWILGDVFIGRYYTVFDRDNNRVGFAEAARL
Protocol: as §1

Cath E [3] = target: T1, Cath E; assay: Reported specificity constants of Cath E for various substrates; set-up: purchased Calbiochem, EMD Bioscience (Gibbstown, N.J.); settings: sequence 3 vs sequence 2
From the text: Table 4 compiles the reported specificity constant (Kcat/Km) of Cath E and Cath D using various substrates including peptide substrate e. […] The specificity constant of Cath E for substrate e represents one of the highest reported Kcat/Km values.

Cath S = target: T3, Cath S (Homo sapiens, UniProt P25774); assay: FRET hydrolysis of substrate e by Cath S; settings: 90 minutes, pH 6.5
T3 construct: purchased Calbiochem, EMD Bioscience (Gibbstown, N.J.)
T3 sequence (P25774 115-331): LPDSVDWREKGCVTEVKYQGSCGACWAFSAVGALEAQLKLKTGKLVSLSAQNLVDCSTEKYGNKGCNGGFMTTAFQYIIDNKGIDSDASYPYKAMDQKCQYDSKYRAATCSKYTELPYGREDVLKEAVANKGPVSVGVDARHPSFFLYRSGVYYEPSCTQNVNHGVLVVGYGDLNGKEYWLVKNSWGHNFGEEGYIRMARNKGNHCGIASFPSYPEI
Protocol: as §1

Cath B = target: T4, Cath B (Homo sapiens, UniProt P07858); assay: FRET hydrolysis of substrate e by Cath B; settings: 90 minutes, pH 6.5
T4 construct: purchased Calbiochem, EMD Bioscience (Gibbstown, N.J.)
Protocol: as §1

Cath D [4] = target: T2, Cath D; assay: Enzyme digestion, fragments by RP-HPLC and ESI-MS (Cath D); settings: high dose of Cath D, overnight hydrolysis
Protocol: Substrate e was subjected to aspartic peptidase digestion using Cath E and Cath D. […] The resulting digestion fragments were analyzed by the aforementioned analytical RP-HPLC and ESI-MS.

Cath E [5] = target: T1, Cath E; assay: Enzyme digestion, fragments by RP-HPLC and ESI-MS (Cath E); set-up: purchased Calbiochem, EMD Bioscience (Gibbstown, N.J.); settings: excess Cath E, 37° C., 3 hours
Protocol: Substrate e was subjected to aspartic peptidase digestion using Cath E and Cath D. Fluorogenic substrate e (10 μL, 100 μM) was incubated at 37° C. for 3 hours with excess Cath E or Cath D (˜119 pmol) in 100 μL, of 50 mM sodium acetate buffer (pH 4) containing 150 mM NaCl. The resulting digestion fragments were analyzed by the aforementioned analytical RP-HPLC and ESI-MS.

[6] = substrate: COc1ccc2c(CC(=O)N[C@@H](C)C(=O)NCC(=O)N[C@@H](Cc3ccccc3)C(=O)N[C@@H](CO)C(=O)N[C@@H](CC(C)C)C(=O)N3CCC[C@H]3C(=O)N[C@@H](C)C(=O)N[C@@H](CCCCNc3ccc([N+](=O)[O-])cc3[N+](=O)[O-])C(=O)N[C@H](CCCNC(=N)N)C(N)=O)cc(=O)oc2c1; assay: Kinetic parameters of substrate e hydrolysis by Cath E; settings: other: Cath E 6.8 nM, pH 4.0, 10 minutes, 37° C., Woolf transformation
Protocol: The initial rates of substrate e hydrolysis by Cath E were monitored using a fluorescence plate-reader. Hydrolysis of different substrate e concentrations, 10, 20, 40 and 60 μM, was performed at pH 4 in 50 mM sodium acetate buffer containing 150 mM NaCl. Cath E with various concentrations, 2.27, 4.55, 6.82 nM, were incubated with substrate e and the changes in the fluorescence intensities were monitored for 10 minutes. The substrate e hydrolysis was determined by integrating the fluorescence intensity, and plotted by the amount of the hydrolyzed substrate e over time.
The initial velocities of the hydrolysis reactions were measured between 0 and 10 minutes using several concentrations of substrate e including: 5, 10, 20, 40, 60, 80, 100 μM. All of the used substrate e concentrations were much higher than the concentrations of enzyme (2.3, 4.5 and 6.8 nM). To measure the initial rates of the substrate e proteolysis and to determine Michaelis-Menten kinetic parameters Vmax and Km of the Cath E and Cath D, the Michaelis-Menten equation was transformed using the Woolf kinetic transformation [S/v=(S/Vmax)+(Km/Vmax)]. The initial velocity was calculated from the slope during the linear phase of the reaction and S/Vplotted versus substrate e concentration. The graph representation gave straight lines and Vmax and Km were calculated by the linear regression of the line to obtain the slope and intercept. The turnover number of Cath E enzyme (Kcat) was calculated using the equation Kcat=Vmax/[Cath E], where [Cath E] represents the Cath E concentration in μM and Vmax is the maximum velocity in μM S-1. All the reactions and measurements were carried out in 50 mM sodium acetate buffers (pH 4.0) using the aforementioned setting.

Molecule: Mca-Ala-Gly-Phe-Ser-Leu**Gly-Pro-Lys(Dnp)-DArg-CONH2 (Mca-AGFSLGPK(Dnp)[dR]-NH2; SMILES COc1ccc2c(CC(=O)N[C@@H](C)C(=O)NCC(=O)N[C@@H](Cc3ccccc3)C(=O)N[C@@H](CO)C(=O)N[C@@H](CC(C)C)C(=O)NCC(=O)N3CCC[C@H]3C(=O)N[C@@H](CCCCNc3ccc([N+](=O)[O-])cc3[N+](=O)[O-])C(=O)N[C@H](CCCNC(=N)N)C(N)=O)cc(=O)oc2c1) [Substrate d]
time to saturation of fluorescence on activation by Cath E (Cath E [1]; 200 μM substrate, pH 4.0): did not reach saturation within the monitored period

Kcat/Km for Cath E relative to sequence 2 (Cath E [3]): around 16 fold
Molecule: Mca-Gly-Ser-Pro-Ala-Phe**Leu-Ala-Lys(Dnp)-DArg-CONH2 (Mca-GSPAFLAK(Dnp)[dR]-NH2; SMILES COc1ccc2c(CC(=O)NCC(=O)N[C@@H](CO)C(=O)N3CCC[C@H]3C(=O)N[C@@H](C)C(=O)N[C@@H](Cc3ccccc3)C(=O)N[C@@H](CC(C)C)C(=O)N[C@@H](C)C(=O)N[C@@H](CCCCNc3ccc([N+](=O)[O-])cc3[N+](=O)[O-])C(=O)N[C@H](CCCNC(=N)N)C(N)=O)cc(=O)oc2c1) [Substrate a]
fluorescence increase / hydrolysis upon incubation with Cath D (Cath D [2]): the highest among all investigated substrates
fluorescence increase upon incubation with Cath E (Cath E [1]; compared among substrates a-e): the fastest increase and the highest fluorescence signal among all investigated substrates

Molecule: COc1ccc2c(CC(=O)N[C@@H](C)C(=O)NCC(=O)N[C@@H](Cc3ccccc3)C(=O)N[C@@H](CO)C(=O)N[C@@H](CC(C)C)C(=O)N3CCC[C@H]3C(=O)N[C@@H](C)C(=O)N[C@@H](CCCCNc3ccc([N+](=O)[O-])cc3[N+](=O)[O-])C(=O)N[C@H](CCCNC(=N)N)C(N)=O)cc(=O)oc2c1 [Substrate e, Mca-Ala-Gly-Phe-Ser-Leu**Pro-Ala-Lys(Dnp)-DArg-CONH2] (Mca-AGFSLPAK(Dnp)[dR]-NH2)
fluorescent signal increase relative to that observed with Cath E (Cath S): less than 15%
fluorescent signal increase relative to that observed with Cath E (Cath B): less than 15%
cleavage sites (Cath D [4]): two minor cleavage sites
time to saturation of fluorescence on activation by Cath E (Cath E [1]; 200 μM substrate, pH 4.0): ≤ 10 min
net fluorescence signal ratio (Cath E/Cath D) (Cath E [1]; 1 minute / initial time point, 200 μM substrate, 23 pmol enzyme, pH 4.0): 265 fold
cleavage site (Cath E [5]): exclusively between Leu^5 and Pro^6

B1: Cath E (Homo sapiens) (protein)
chain: IQFTESCSMDQSAKEPLINYLDMEYFGTISIGSPPQNFTVIFDTGSSNLWVPSVYCTSPACKTHSRFQPSQSSTYSQPGQSFSIQYGTGSLSGIIGADQVSVEGLTVVGQQFGESVTEPGQTFVDAEFDGILGLGYPSLAVGGVTPVFDNMMAQNLVDLPMFSVYMSSNPEGGAGSELIFGGYDHSHFSGSLNWVPVTKQAYWQIALDNIQVGGTVMFCSEGCQAIVDTGTSLITGPSDKIKQLQNAIGAAPVDGEYAVECANLNVMPDVTFTINGVPYTLSPTAYTLLDFVDGMQFCSSGFQGLDIHPPAGPLWILGDVFIRQFYSVFDRGNNRVGLAPAVP
notes: purchased Calbiochem, EMD Bioscience (Gibbstown, N.J.)
Km [6]: 19.37 µM
Vmax [6]: 2.2 μM S^−1
kcat [6]: 322.5 S^−1
kcat/Km [6]: 16.7 μM^−1 S^−1
